This note sets out measurements from US20100249372A1 (WISCONSIN ALUMNI RESEARCH FOUNDATION, published 2010).

One test addresses T1, Botulinum neurotoxin B (Clostridium botulinum, UniProt P10844 2-1291).
T1 sequence: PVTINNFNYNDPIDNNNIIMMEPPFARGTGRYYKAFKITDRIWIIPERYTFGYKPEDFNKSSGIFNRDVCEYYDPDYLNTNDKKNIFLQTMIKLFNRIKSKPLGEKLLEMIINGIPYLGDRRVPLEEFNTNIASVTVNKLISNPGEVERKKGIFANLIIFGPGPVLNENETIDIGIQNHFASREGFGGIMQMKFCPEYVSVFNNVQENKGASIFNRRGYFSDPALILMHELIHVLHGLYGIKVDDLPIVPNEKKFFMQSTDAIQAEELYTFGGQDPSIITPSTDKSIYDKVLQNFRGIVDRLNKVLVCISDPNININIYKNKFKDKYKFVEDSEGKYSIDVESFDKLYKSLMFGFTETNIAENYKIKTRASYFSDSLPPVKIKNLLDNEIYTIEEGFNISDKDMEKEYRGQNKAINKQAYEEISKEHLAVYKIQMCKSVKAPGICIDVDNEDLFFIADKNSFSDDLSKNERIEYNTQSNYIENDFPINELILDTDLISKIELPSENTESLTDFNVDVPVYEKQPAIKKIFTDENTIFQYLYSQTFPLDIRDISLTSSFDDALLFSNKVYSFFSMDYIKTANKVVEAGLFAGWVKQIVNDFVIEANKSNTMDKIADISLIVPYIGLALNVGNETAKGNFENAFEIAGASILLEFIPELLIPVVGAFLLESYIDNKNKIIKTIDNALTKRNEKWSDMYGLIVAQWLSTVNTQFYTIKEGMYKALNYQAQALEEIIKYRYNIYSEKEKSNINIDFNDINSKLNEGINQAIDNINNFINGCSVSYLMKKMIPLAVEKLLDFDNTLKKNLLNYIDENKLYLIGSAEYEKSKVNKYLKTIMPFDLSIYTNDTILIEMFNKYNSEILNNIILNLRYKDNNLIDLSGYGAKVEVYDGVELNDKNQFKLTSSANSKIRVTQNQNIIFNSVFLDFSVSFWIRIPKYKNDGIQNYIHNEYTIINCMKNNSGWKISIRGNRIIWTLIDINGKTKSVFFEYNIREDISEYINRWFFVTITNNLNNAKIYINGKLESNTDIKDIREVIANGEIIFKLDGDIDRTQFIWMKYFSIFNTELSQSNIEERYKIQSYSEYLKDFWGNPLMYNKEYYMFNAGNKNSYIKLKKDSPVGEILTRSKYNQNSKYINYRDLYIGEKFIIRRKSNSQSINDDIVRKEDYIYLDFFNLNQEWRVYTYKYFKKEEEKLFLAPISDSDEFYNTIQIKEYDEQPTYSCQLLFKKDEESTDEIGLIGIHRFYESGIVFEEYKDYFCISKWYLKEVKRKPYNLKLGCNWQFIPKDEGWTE
The test is described as follows: pull-down with immobilised GST-L4 (8 µg), western blot.

A further test has as its target T2, Botulinum neurotoxin E (Clostridium botulinum, UniProt Q00496 2-1251).
T2 sequence: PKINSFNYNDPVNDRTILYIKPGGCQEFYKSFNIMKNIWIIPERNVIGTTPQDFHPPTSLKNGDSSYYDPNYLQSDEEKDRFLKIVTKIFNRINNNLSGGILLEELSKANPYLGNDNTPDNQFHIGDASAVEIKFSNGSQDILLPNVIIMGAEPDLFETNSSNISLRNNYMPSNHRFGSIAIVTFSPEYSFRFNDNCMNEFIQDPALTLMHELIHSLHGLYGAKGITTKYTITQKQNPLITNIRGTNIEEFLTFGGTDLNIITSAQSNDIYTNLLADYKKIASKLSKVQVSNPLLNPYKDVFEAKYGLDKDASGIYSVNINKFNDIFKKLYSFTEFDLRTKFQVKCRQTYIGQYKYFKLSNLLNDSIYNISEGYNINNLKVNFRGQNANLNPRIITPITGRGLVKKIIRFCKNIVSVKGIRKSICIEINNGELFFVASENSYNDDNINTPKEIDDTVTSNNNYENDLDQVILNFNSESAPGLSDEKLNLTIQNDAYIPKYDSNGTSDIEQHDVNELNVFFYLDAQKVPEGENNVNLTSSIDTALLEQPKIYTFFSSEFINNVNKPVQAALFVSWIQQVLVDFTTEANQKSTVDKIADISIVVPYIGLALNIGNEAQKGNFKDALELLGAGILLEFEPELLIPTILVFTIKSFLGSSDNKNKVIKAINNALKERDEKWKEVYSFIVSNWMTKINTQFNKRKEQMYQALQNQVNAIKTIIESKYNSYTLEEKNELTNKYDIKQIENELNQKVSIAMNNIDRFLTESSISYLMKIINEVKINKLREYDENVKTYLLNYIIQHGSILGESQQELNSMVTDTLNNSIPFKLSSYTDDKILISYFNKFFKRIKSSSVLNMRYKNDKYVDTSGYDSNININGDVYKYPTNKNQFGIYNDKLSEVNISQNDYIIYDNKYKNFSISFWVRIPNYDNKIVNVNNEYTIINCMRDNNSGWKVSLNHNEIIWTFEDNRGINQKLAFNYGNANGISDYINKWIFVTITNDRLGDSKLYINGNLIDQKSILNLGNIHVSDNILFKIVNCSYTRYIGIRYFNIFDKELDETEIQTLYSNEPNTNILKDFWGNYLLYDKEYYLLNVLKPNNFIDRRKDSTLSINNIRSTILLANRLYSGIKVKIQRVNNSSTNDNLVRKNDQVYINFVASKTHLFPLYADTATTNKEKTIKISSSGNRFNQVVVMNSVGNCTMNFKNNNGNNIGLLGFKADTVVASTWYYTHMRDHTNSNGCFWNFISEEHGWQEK
The test is described as above.

The next test addresses Botulinum neurotoxin A (Clostridium botulinum, UniProt P0DPI1 2-1296). The test is described as follows: immunostaining of transfected SV2A/B double knockout hippocampal neurons.

B1: GST-tagged 4th luminal domain (L4) of rat SV2A (other)
chain: FPDMIRHLQAVDYAARTKVFPGERVEHVTFNFTLENQIHRGGQYFNDKFIGLRLKSVSFEDSLFEECYFEDVTSSNTFFRNCTFINTVFYNTDLFEYKFVNSRLVNSTFLHNKEGCPLDVTGTGEGAY
As for B1, the binding result with Botulinum neurotoxin B and in the test with Botulinum neurotoxin E was “no binding (tested: 100 nM)” in each case.

B2: GST-tagged 4th luminal domain (L4) of rat SV2C (other)
chain: FPDVIKHLQSDEYALLTRNVQKDKYANFSINFTMENQVHTGMEYDNGRFLGVKFKSVTFKDSVFKSCTFDDVTSVNTYFKNCTFIDTLFENTDFEPYKFIDSEFQNCSFLHNKTGCQITFDDDYSAY
B2: the binding result with Botulinum neurotoxin B and in the test with Botulinum neurotoxin E was “no binding (tested: 100 nM)” each time.

B3: synaptotagmin I (other)
chain: MVSASHPEALAAPVTTVATLVPHNATEPASPGEGKEDAFSKLKQKFMNELHKIPLPPWALIAIAIVAVLLVVTCCFCVCKKCLFKKKNKKKGKEKGGKNAINMKDVKDLGKTMKDQALKDDDAETGLTDGEEKEEPKEEEKLGKLQYSLDYDFQNNQLLVGIIQAAELPALDMGGTSDPYVKVFLLPDKKKKFETKVHRKTLNPVFNEQFTFKVPYSELGGKTLVMAVYDFDRFSKHDIIGEFKVPMNTVDFGHVTEEWRDLQSAEKEEQEKLGDICFSLRYVPTAGKLTVVILEAKNLKKMDVGGLSDPYVKIHLMQNGKRLKKKKTTIKKNTLNPYYNESFSFEVPFEQIQKVQVVVTVLDYDKIGKNDAIGKVFVGYNSTGAELRHWSDMLANPRRPIAQWHTLQVEEEVDAMLAVKK
As for B3, the binding result with Botulinum neurotoxin A was “no binding (tested: 10 nM)”.

B4: GST-tagged 4th luminal domain (L4) of rat SV2B (other)
chain: FPDMIRYFQDEEYKSKMKVFFGEHVHGATINFTMENQIHQHGKLVNDKFIKMYFKHVLFEDTFFDKCYFEDVTSTDTYFKNCTIESTTFYNTDLYKHKFIDCRFINSTFLEQKEGCHMDFEEDNDF
For the molecule B4, the binding result with Botulinum neurotoxin B and with Botulinum neurotoxin E was “no binding (tested: 100 nM)” each time.
